Publication PMC4643400 (Human mutation, 2015)

Target: T1, Trm7-A26P-PT (S. cerevisiae, UniProt P38238 1-310, A26P)
T1 sequence (looked up): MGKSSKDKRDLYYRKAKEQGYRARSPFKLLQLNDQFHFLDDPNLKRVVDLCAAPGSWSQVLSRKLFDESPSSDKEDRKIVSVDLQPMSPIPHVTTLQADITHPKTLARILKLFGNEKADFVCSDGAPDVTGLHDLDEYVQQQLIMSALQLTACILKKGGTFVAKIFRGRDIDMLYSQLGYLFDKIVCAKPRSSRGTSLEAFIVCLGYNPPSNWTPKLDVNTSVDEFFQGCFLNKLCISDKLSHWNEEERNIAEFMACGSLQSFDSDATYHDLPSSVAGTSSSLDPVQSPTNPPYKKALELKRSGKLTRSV
Assay: pull-down

B1: Trm734-9myc (natural protein, S. cerevisiae, UniProt Q08924 1-1013, looked up)
chain: MKDLSHYGPALCVKFYNDYVLAGYGPFIHVYDYHSATLINKCRLFHYNKVHGLSLSSEGKILAYGARSVTIVELEDVLKKESLVDFERINSDWITGATFSFDNLQIYLLTCYNKVLICDLNCEVLFRKSLGGERSILYSGIIKVFGPDKVYVNAGTVMGGVIIWDLFSETKIHNLLGHEGSIFYVNLSNNGRYVASCSDDRSIRLWDLETGKQLSVGWSHTARIWNLMFFDNDSKLISVSEDCTCRVWNIIESRENVAELSISNVYEVHLIKSIWGVDVKDDEMIAVTSGNDGRLKLIDLLQLKRHGDEETSFSLDDIAKQCGDIFEKNESIKGFQWFSFGVIAITSLGKILKYSDVTKQWKLLLTNEKFNSYPITNGIQTQNIAVFSNNKSDILLIKFSKDSADIIETEEFHLDELSKTNNCLVTEYDDDSFLLTLQSPNPREKFVCLEISLQNLKIKSKHCFNKPENFSSSCLTSFRNHILVGSRFSTLVIYNLLDESEEPFIIRRLSPGDTTTSIEFVEDKDNSAVFSVTNRDGYYVFIELTKNSLEEGPYRLSYKVLHSNKMMKGFLEGAFFNSKGEYITYGFKSSLFYLYNETNCYELASEVCGGSHRLWNLAKITDGHVLMYIKASRFHLRKIYNSIVPETLENGVHGREIRDISICPVSNTNTNDNFKDGHIFCTASEDTTIKLGYFNNRTGKVQNFWTQRKHVSGLQRCQFINHKLMISSSAREELFLWELNDKYNKRPYMTIRQALPVSTNNSDLRIMDFDVKFISQSGDFLLVTVYSDSTIKIWHYRENQNKFDLIMQGRYKTCCLFNVVFIALKEELLVVISPTDGHLVVYNITEYVPFSVDPISGDLVDHKLDATISNLPAPVAQLPVHQSGVKSLDYVANATRTSATILTGGDDNGLGLSNLKLDDSNKVTLKTSDFIAAAASSTITSGMLINGGKEVITTSVDQVIRAWEITAGKLSLVDKKRTTVADTGSLEIISNDEDADSEKTLLIGGVGLSIWKK
fold of Trm734-9myc pulled down against Trm7-MORF from a CEN plasmid: ~10 fold
